Substitutions are numbered along the chain they refer to.

Experiment [1] concerns the target human Claudin18.2 (human) (UniProt P56856). Kind of experiment: flow cytometry (IntelliCyt) on Ba/F3-Claudin 18.2 cells. In general terms: A flow cytometer gives signals particle by particle.
Experiment [2] has the same target. Kind of experiment: cell-based or functional assay.

B1: humanized antibody 1E9.2-hz15 (antibody, human IgG1, kappa, V domains shown)
VH: EVQLVESGGGLVKPGGSLRLSCAASGFSFSNSAMSWVRQAPGKGLEWVSTISSGDSYTYYADSVKGRFTISRDNAKNSLYLQMNSLRAEDTAVYYCARQGYGNALDYWGQGTLVTVSS
VL: DIVMTQTPLSLPVTPGEPASISCKSSQSLLNSGNQKNYLTWYLQKPGQSPQLLIYWSSTRESGVPDRFSGSGSGTDFTLKISRVEAEDFGVYYCQNDYYYPLTFGGGTKVEIKR
In experiment [1], B1 had a Max MFI of 8.99e+06 MFI. In experiment [2], this molecule registered an ADCC EC50 of 0.08 µg/mL and an ADCC Max killing rate % of 66.2%.

B2: humanized antibody 1E9.2-hz17 (antibody, human IgG1, kappa, V domains shown)
VH: B1 VH
VL: B1 VL with N31Q, Q35G
In the case of B2, the Max MFI in experiment [1] was found to be 5.9e+06 MFI. For the same molecule, in experiment [2], the ADCC EC50 stood at 0.113 µg/mL and the ADCC Max killing rate % amounted to 59.6%.
